From the supplement of paper PMC10567573

B1: FBXO39 (parent)
chain: PSRVHASEVESAVWYVKKFGRYLE
B2: MNAT1 (parent)
chain: LEEALYEYQPLQIETYGPHVPELE

Variants of: B1
Experiment: protein stability index of a GFP-peptide fusion (GPS, HEK-293T) (PSI 1-6); higher = more stable
Conditions: c terminus: a fixed tail appended
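Note: lentivirally expressed fusions sorted by FACS into six bins by GFP to DsRed ratio, PSI derived from sequencing read proportions per bin multiplied by bin number.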

Variant | protein stability index
P1G | 2.83
P1L | 2.13
P1I | 1.83
P1A | 2.45
P1H | 2.06
P1K | 2.21
P1C | 1.82
P1F | 1.66
P1E | 1.84
P1M | 1.87
P1N | 1.72
P1D | 2.08

Variants of: B2
Experiment: as above
Conditions: c terminus: a fixed tail appended

Variant | protein stability index
E24P | 1.93
E24H | 2.25
E24S | 2.54
E24M | 2.14
E24L | 2.19
E24F | 1.91
E24D | 3.39
E24R | 1.95
E24T | 2.67
E24K | 2.53
E24N | 2.35
E24W | 1.45
E24G | 2.03
E24Y | 1.39
E24A | 2.84
E24Q | 2.18
E24V | 2.19
E24I | 1.88
E24C | 1.76
E7Y | 1.98
P18N | 3.31
P18R | 3.78
P18I | 2.04
P18W | 1.18
P18Y | 2.97

Variant | protein stability index
P18D | 2.8
P18L | 2.16
P18E | 2.15
P18H | 2.81
P18C | 1.91
P18G | 2.96
P18F | 2.17
P18A | 2.74
P18K | 4.11
P18V | 2.39
P18S | 2.6
P18M | 2.01
P18Q | 3.3
P18T | 3.02
Q9R | 1.88
Q9W | 2.79
Q9Y | 2.43
Q9F | 2.13
Q9S | 2.94
Q9D | 4.67
Q9M | 2.74
Q9P | 5.02
Q9L | 2.7
Q9A | 2.86
Q9I | 3.56

Variant | protein stability index
Q9N | 2.59
Q9T | 4.38
Q9K | 2.68
Q9C | 2.6
Q9G | 3.46
Q9V | 3.84
Q9E | 4.38
Q9H | 1.87
P10K | 4.53
P10F | 2.91
P10A | 3.89
P10D | 4.33
P10H | 4.99
P10W | 2.63
P10L | 3.32
P10Y | 3.09
P10C | 3.27
P10R | 4.01
P10E | 4.6
P10N | 4.75
P10Q | 4.43
P10V | 2.25
P10G | 4.24
P10M | 3.85
P10I | 2.77

Variant | protein stability index
P10S | 4.05
P10T | 4.1
I13R | 4.76
I13C | 4.14
I13A | 5.37
I13T | 4.75
I13S | 4.96
I13Y | 4.41
I13E | 5.29
I13H | 5.15
I13D | 5.07
I13F | 4.34
I13L | 4.51
I13N | 5.5
I13P | 5.08
I13M | 4.27
I13K | 4.9
I13G | 5.01
I13W | 3.8
I13Q | 5.01
H19Y | 2.62
H19R | 3.99
H19E | 3.27
H19N | 2.82
H19A | 2.89

Variant | protein stability index
H19S | 2.69
H19T | 3.17
H19L | 2.33
H19V | 2.21
H19G | 2.26
H19Q | 2.37
H19K | 2.8
H19W | 1.5
H19P | 2.01
H19D | 2.76
H19I | 1.57
H19F | 2.11
H19C | 3.3
H19M | 2.09
V20K | 3.23
V20L | 2.49
V20G | 3.45
V20T | 2.38
V20R | 2.58
V20M | 2.57
V20P | 2.21
V20H | 2.1
V20Q | 2.92
V20W | 2.17
V20A | 3.26

Variant | protein stability index
V20S | 2.57
V20F | 2.36
V20I | 2.4
V20D | 2.36
V20Y | 2.78
V20C | 2.15
V20N | 3.23
V20E | 1.94
Y16E | 4.13
Y16I | 3.61
Y16G | 4.52
Y16V | 3.19
Y16R | 3.19
Y16N | 4.7
Y16T | 4.09
Y16K | 4.34
Y16P | 4.94
Y16S | 4.27
Y16A | 4.54
Y16C | 3.84
Y16L | 4.15
Y16W | 2.49
Y16Q | 4.33
Y16M | 3.79
Y16H | 3.15

Variant | protein stability index
Y16D | 5.37
Y16F | 3.49
T15V | 1.7
T15E | 4.43
T15N | 4.13
T15S | 3.54
T15W | 2.2
T15H | 3.91
T15D | 4.73
T15M | 2.32
T15R | 4.41
T15P | 4.55
T15K | 4.14
T15C | 2.18
T15Y | 2.01
T15Q | 4.09
T15F | 1.75
T15L | 1.82
T15G | 4.13
T15A | 1.99
T15I | 1.61
P21A | 2.92
P21D | 3.3
P21R | 2.96
P21H | 2.58

Variant | protein stability index
P21W | 1.75
P21E | 3.67
P21I | 2.2
P21Y | 1.75
P21F | 1.44
P21T | 2.56
P21L | 2.79
P21K | 3.01
P21M | 2.53
P21Q | 3.42
P21S | 2.41
P21N | 2.47
P21C | 3.78
P21G | 1.97
P21V | 2.19
Y8S | 5.53
Y8I | 4.92
Y8K | 5.14
Y8G | 5.41
Y8L | 4.75
Y8A | 5.3
Y8D | 5.23
Y8Q | 5.5
Y8W | 3.59
Y8T | 5.38

Variant | protein stability index
Y8P | 5.25
Y8V | 4.98
Y8C | 4.91
Y8F | 3.75
Y8N | 5.74
Y8E | 5.4
Y8H | 4.27
Y8M | 4.71
Y8R | 5.44
Q12Y | 2.01
Q12V | 2.46
Q12T | 3.19
Q12E | 3.67
Q12C | 2.14
Q12K | 1.84
Q12A | 2.33
Q12M | 2.35
Q12S | 2.21
Q12D | 3.92
Q12H | 2.5
Q12P | 5.02
Q12N | 2.65
Q12W | 2.11
Q12I | 2.5
Q12L | 2.67

Variant | protein stability index
Q12F | 2.12
Q12R | 2.27
Q12G | 2.75
E22I | 1.84
E22W | 1.54
E22V | 2.56
E22T | 2.56
E22D | 2.46
E22G | 2.43
E22N | 2.31
E22F | 1.97
E22L | 2.35
E22S | 2.4
E22R | 2.35
E22K | 2.31
E22C | 3.71
E22M | 2.35
E22P | 2.28
E22H | 2.2
E22Q | 2.54
E22A | 2.47
E22Y | 2.49
G17L | 1.85
G17Q | 2.53
G17Y | 1.59

Variant | protein stability index
G17W | 1.74
G17S | 2.27
G17N | 2.99
G17E | 3.14
G17T | 2.5
G17D | 2.21
G17I | 2.13
G17F | 2.35
G17H | 3.14
G17A | 2.35
G17C | 1.98
G17V | 2.12
G17M | 1.75
G17P | 2.69
G17K | 2.88
E14R | 1.93
E14I | 1.81
E14N | 2.61
E14Q | 2.19
E14F | 2.01
E14V | 1.82
E14H | 1.8
E14M | 2.47
E14Y | 1.87
E14G | 3.31

Variant | protein stability index
E14T | 2.32
E14P | 4.22
E14A | 2.3
E14S | 2.25
E14D | 2.68
E14L | 2.01
E14K | 1.75
E14C | 2.12
E14W | 1.6
L23A | 3.56
L23D | 4.02
L23P | 3.19
L23V | 2.81
L23N | 3.34
L23F | 2.87
L23C | 3.16
L23Q | 2.98
L23Y | 2.89
L23T | 2.6
L23R | 3.99
L23K | 3.59
L23G | 3.55
L23M | 3.2
L23H | 3.29
L23S | 3.48

Variant | protein stability index
L23E | 4.12
L23I | 2.53
L23W | 2.84
L11A | 4.06
L11K | 4.26
L11T | 3.99
L11F | 4.11
L11G | 5.26
L11Q | 4.28
L11Y | 3.18
L11P | 5.15
L11N | 4.71
L11I | 2.56
L11E | 4.77
L11D | 4.85
L11H | 4.61
L11R | 4.32
L11W | 4.27
L11S | 4.11
L11C | 2.99
L11V | 2.04
L11M | 3.17
